Laboratory results published in PMC4433220.

Molecular target: Dps (Escherichia coli) (UniProt P0ABT2)
Test: AFM
Conditions: EMSA: 50 mM Tris-HCl pH 7.5, 0.1 mM EDTA, 50 mM NaCl, 37°C 30 min, footprinting: 50 mM Tris-HCl pH 8.0, 0.1 mM EDTA, 0.1 mM DTT, 10 mM MgCl2, 50 mM NaCl …

| Substance | binding signal (nm DNA per bound Dps) | binding signal (nm DNA per bound Dps) (nicked at GAGTC sites (9 sites), 4 nt 3' of the site, top strand) |
| --- | --- | --- |
| pET28b native | 135 | – |
| pET28b nicked with Nt.BspD6I | – | 117 |
